Data on 5 substances can be found in publication PMC12582296.

The target of test [1] is adaptor protein 2 (AP-2) complex. The experiment in a line: ELISA-based peptide binding assay. The note with it: read off a plot.
Test [2] deals with HLA-E (wild type, EGFP at the C-terminus) (human).

“CD1b cytoplasmic tail peptide (CD1) (from UniProt P29016) Y5A”: in test [1] (parent: est. 0.86), the response (absorbance 450) was 0.64. Turning to “HLA-E cytoplasmic tail peptide (E) (from UniProt P13747) K310R; K322Q; W325S”, the response (absorbance 450) in test [1] (parent: est. 1.5) stood at 0.83. Mtb44 peptide showed a percentage of internalized HLA-E that reappeared on the cell surface within 1 h (recycling assay, HEK293T, peptide pulsing 50 µM) in test [2] of 18%.

The substance RL9 peptide displayed a percentage of internalized HLA-E that reappeared on the cell surface within 1 h (recycling assay, HEK293T, peptide pulsing 50 µM) in test [2] of 15%. Regarding VL9 peptide, in test [2], the percentage of internalized HLA-E that reappeared on the cell surface within 1 h (recycling assay, HEK293T, peptide pulsing 50 µM) came to 25%.
